Patent US20140274901A1, “PROANP COMPOSITIONS AND METHODS FOR TREATING ACUTE HEART FAILURE” (Mayo Foundation for Medical Education and Research, priority 2013, published 2014)
Where two headings read alike, the source gives them in different places.

How the values were obtained:
[1] = in vivo; settings: dog, iv, 667 pmol/kg
Experimental: (§3) Blood samples were obtained from aorta and renal vein and urine is obtained before and 2.5, 5, 10, 15, 30, 60, 120, and 180 min after injection. […] These doses were similar to doses of carperitide/nesiritide in clinical use.
(§4) Canine ANP1-28 and NT-proANP concentrations are determined by specific immunoassays as described elsewhere (Ichiki et al., Clin Chem, 2011, 57:40-47; Ichiki et al., 2012, supra; Chen et al., J Am Coll Cardiol, 2000, 35:240A; and Chen et al., Am J Physiol Regul Integr Comp Physiol, 2005, 288:R1093-1097).
(§5) The in vivo effects of canine proANP, ANP1-28, and BNP1-32 were examined in normal canines (FIG. 6).

[2] = Pharmacokinetic analysis of NP immunoreactivity after bolus intravenous injection in normal canines
Experimental: as §3, §4, §5

[3] = Hemodynamic and renal actions after bolus intravenous injection in normal canines; type: in vivo, canine
Experimental: Blood samples were obtained from aorta and renal vein and urine is obtained before and 2.5, 5, 10, 15, 30, 60, 120, and 180 min after injection.
as §5

[4] = system: cGMP; assay: Plasma and urinary cGMP after bolus intravenous injection in normal canines; type: in vivo, canine; settings: for PcGMP AUC / PcGMP Cmax: plasma cGMP; for PcGMP AUC / PcGMP Cmax / UcGMP AUC / UcGMP Cmax: intravenous bolus 667 pmol/kg; for UcGMP AUC / UcGMP Cmax: urinary cGMP excretion
Experimental: (§1) The samples were ether extracted four times in 4 volumes of ether, dried, and reconstituted in 300 ul cGMP assay buffer, and the cGMP levels were measured using a competitive RIA cGMP kit (Perkin-Elmer, Boston, Mass.).

[5] = biological target: T1, GC-A (Homo sapiens, UniProt P16066); assay: cGMP production in HEK293 cells overexpressing GC-A; type: cell-based
T1 construct: expressed in transfected cells; host or cells: HEK293
T1 sequence (P16066 33-1061): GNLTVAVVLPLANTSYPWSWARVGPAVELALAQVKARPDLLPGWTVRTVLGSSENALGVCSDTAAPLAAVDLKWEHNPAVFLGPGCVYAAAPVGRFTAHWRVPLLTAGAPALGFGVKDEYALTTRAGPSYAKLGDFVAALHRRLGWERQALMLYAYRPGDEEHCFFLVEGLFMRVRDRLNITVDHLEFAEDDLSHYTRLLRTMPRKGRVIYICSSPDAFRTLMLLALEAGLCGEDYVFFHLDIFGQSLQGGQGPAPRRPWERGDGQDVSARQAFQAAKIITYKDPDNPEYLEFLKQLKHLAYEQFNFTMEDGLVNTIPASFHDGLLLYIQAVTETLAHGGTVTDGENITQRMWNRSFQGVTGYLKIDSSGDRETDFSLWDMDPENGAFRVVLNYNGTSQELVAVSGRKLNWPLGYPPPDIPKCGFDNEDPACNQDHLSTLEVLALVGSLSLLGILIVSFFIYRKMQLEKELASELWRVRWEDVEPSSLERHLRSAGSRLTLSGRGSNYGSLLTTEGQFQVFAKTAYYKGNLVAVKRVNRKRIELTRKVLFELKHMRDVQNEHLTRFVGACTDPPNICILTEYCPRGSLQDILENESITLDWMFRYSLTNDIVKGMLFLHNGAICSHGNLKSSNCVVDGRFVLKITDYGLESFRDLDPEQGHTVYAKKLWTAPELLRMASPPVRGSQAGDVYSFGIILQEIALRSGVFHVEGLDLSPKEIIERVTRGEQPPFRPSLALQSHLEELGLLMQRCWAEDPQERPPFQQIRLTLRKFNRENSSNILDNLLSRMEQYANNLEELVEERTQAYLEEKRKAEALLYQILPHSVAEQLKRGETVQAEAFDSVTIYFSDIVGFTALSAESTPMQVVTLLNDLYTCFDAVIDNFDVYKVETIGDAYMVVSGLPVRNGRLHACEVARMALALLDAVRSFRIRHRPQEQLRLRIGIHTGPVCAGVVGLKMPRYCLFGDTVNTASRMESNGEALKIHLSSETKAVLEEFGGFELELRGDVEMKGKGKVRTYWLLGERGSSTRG
Source text: (§2) FIGS. 5A-5D depict proANP effects in vitro. FIG. 5A is a pair of graphs plotting cGMP production in GC-A or GC-B overexpressing HEK293 cells treated with proANP, proBNP, or mature ANP or BNP, as indicated. *p<0.05 vs. non-treated cells. FIG. 5B is a pair of graphs plotting cGMP production in GC-A or GC-B overexpressing HEK293 cells treated with proANP (10^−8 M) in serum or PBS, as indicated. *p<0.05 vs. non-treated cells. †p<0.05 vs. PBS-treated proANP. FIG. 5C is a series of photographs showing immunocytochemistry for collagen type I (Col I), GC-A, and corin in cardiac fibroblasts (CFs). NHS served as a negative control. Magnification is 100×. FIG. 5D is a graph plotting the time course of cGMP production in CFs treated with ANP or proANP (10^−7M). […] Data are mean±SEM.
as §1

[6] = system: human cardiac fibroblasts (CFs); assay: cGMP production in human cardiac fibroblasts; type: cell-based; settings: 10^−7 M
Source text: as §2, §1
Further studies utilized human CFs in which GC-A and proANP convertase corin exist (FIG. 5C).

[7] = Processing and degradation of His-tagged proANP in human serum ex vivo
Experimental: Exogenous proANP was incubated in human serum at 37° C. Processed and unprocessed proANP peptides were isolated by immunoprecipitation using His-tag beads, followed by detection via Western blotting with 6×His antibody. […] FIG. 4C is a graph plotting densitometric analysis of processed ANP1-28 from proANP that was incubated in serum from normal subjects and HF patients for the indicated times. Values are mean±SEM. *p<0.05 vs. 0 min.

[8] = normal canines, 667 pmol/kg intravenous
[9] = 667 pmol/kg intravenous, comparison of the three NPs

CC[C@H](C)[C@@H]1NC(=O)[C@H](CCCNC(=N)N)NC(=O)[C@H](CC(=O)O)NC(=O)[C@H](CCSC)NC(=O)[C@H](CCCNC(=N)N)NC(=O)CNC(=O)CNC(=O)[C@H](Cc2ccccc2)NC(=O)[C@@H](NC(=O)[C@H](CO)NC(=O)[C@H](CO)NC(=O)[C@H](CCCNC(=N)N)NC(=O)[C@H](CCCNC(=N)N)NC(=O)[C@H](CC(C)C)NC(=O)[C@@H](N)CO)CSSC[C@@H](C(=O)N[C@@H](CC(N)=O)C(=O)N[C@@H](CO)C(=O)N[C@@H](Cc2ccccc2)C(=O)N[C@@H](CCCNC(=N)N)C(=O)N[C@@H](Cc2ccc(O)cc2)C(=O)O)NC(=O)CNC(=O)[C@H](CC(C)C)NC(=O)CNC(=O)[C@H](CO)NC(=O)[C@H](CCC(N)=O)NC(=O)[C@H](C)NC(=O)CNC1=O [ANP, atrial natriuretic peptide]
AUC [1]: 0.2 nM·h
Tmax [1]: 2 min

CC[C@H](C)[C@@H]1NC(=O)[C@H](CCCNC(=N)N)NC(=O)[C@H](CC(=O)O)NC(=O)[C@H](CCSC)NC(=O)[C@H](CCCCN)NC(=O)[C@H](CCCNC(=N)N)NC(=O)CNC(=O)[C@H](Cc2ccccc2)NC(=O)[C@@H](NC(=O)CNC(=O)[C@H](CO)NC(=O)CNC(=O)[C@H](CCC(N)=O)NC(=O)[C@@H](NC(=O)[C@H](CCSC)NC(=O)[C@H](CCCCN)NC(=O)[C@@H]2CCCN2C(=O)[C@@H](N)CO)C(C)C)CSSC[C@@H](C(=O)N[C@@H](CCCCN)C(=O)N[C@H](C(=O)N[C@@H](CC(C)C)C(=O)N[C@@H](CCCNC(=N)N)C(=O)N[C@@H](CCCNC(=N)N)C(=O)N[C@@H](Cc2c[nH]cn2)C(=O)O)C(C)C)NC(=O)CNC(=O)[C@H](CC(C)C)NC(=O)CNC(=O)[C@H](CO)NC(=O)[C@H](CO)NC(=O)[C@H](CO)NC(=O)[C@H](CO)NC1=O [BNP, B-type natriuretic peptide, reference compound]
AUC ([2]; dog, plasma, iv, 667 pmol/kg): 0.0517 nM·h
Cmax ([2]; dog, plasma, iv, 667 pmol/kg): 0.43 nM
Tmax ([2]; dog, plasma, iv, 667 pmol/kg): 2 min
half-life ([2]; dog, plasma, iv, 667 pmol/kg): 3.7 min
decline of plasma immunoreactivity after the peak [2, 8]: decreased rapidly
effect on blood pressure (BP) [3, 9]: greatest effect
PcGMP AUC [4]: 13406.9 pmol·min/mL
PcGMP Cmax [4]: 255.4 pmol/mL
UcGMP AUC [4]: 207454 pmol·min/mL
UcGMP Cmax [4]: 6936.2 pmol/mL

B1: proANP (protein, listed as Homo sapiens)
chain: NPMYNAVSNADLMDFKNLLDHLEEKMPLEDEVVPPQVLSEPNEEAGAALSPLPEVPPWTGEVSPAQRDGGALGRGPWDSSDRSALLKSKLRALLTAPRSLRRSSCFGGRMDRIGAQSGLGCNSFRY
modifications: His tag in serum
notes: 126 amino acid pro form of atrial natriuretic peptide
NPi AUC ([2]; NP immunoreactivity, normal canines, equimolar intravenous bolus 667 pmol/kg): 28.1 pmol·min/mL
AUC for NP immunoreactivity relative to ANP [2, 8]: twice that of ANP
decline of plasma immunoreactivity after the peak [2, 8]: decreased more slowly than ANP or BNP
time of peak plasma immunoreactivity after injection [2, 8]: 2 min
half-life ([2]; normal canines, equimolar intravenous bolus 667 pmol/kg): 20.7 min
half-life relative to ANP ([2]; normal canines, pharmacokinetic analysis): about 4 times
Cmax ([2]; read-out: NPi Cmax, NP immunoreactivity, normal canines, equimolar intravenous bolus 667 pmol/kg): 0.96 nM
cGMP production ([5]; HEK293 cells overexpressing GC-A): lower than ANP but much higher than proBNP
cGMP production by proANP treated in serum for 5 minutes ([5]; proANP 10^−8 M, treated in serum 5 minutes, versus untreated proANP): stimulated cGMP production significantly as compared to untreated proANP
cGMP production by proANP treated in serum for 180 minutes ([5]; proANP 10^−8 M, treated in serum 180 minutes): decreased
cGMP production relative to ANP ([6]; after 60 minutes): about equal
cGMP levels compared to 0 minutes ([6]; all time points): significant increases in cGMP levels
cGMP production relative to ANP ([6]; first 30 minutes): about half as much as ANP
effect on cardiac output ([3]; 667 pmol/kg intravenous): less than that of either ANP or BNP
effect on renal blood flow ([3]; 667 pmol/kg intravenous): less effect on renal blood flow
diuretic and natriuretic actions (urine volume, urinary sodium excretion) [3, 9]: strongest and longest
effect on blood pressure (BP) [3, 9]: less of an effect on BP as compared to the other two NPs
effect on heart rate ([3]; first 90 minutes, then increased by about 120 minutes): less than that of ANP or BNP
processing of proANP in normal human serum ([7]; His-tagged proANP, 37° C., 5 minute incubation, normal serum): processed into ANP1-28
proANP processing into ANP1-28 in HF serum compared to normals ([7]; serum from HF patients): preserved
AUC for plasma cGMP (PcGMP) relative to ANP or BNP ([4]; 667 pmol/kg intravenous): less than that for ANP or BNP
AUC for urinary cGMP excretion (UcGMP) relative to ANP or BNP ([4]; 667 pmol/kg intravenous): twice that of ANP or BNP
PcGMP AUC [4]: 6110.5 pmol·min/mL
PcGMP Cmax [4]: 93.8 pmol/mL
UcGMP AUC [4]: 420368 pmol·min/mL
UcGMP Cmax [4]: 7027.8 pmol/mL
